Like-named read-outs stand apart in the source and are kept apart here.
Legend:
[1] = molecular target: T1, CXCR4 chemokine receptor (human), P61073
T1 chain: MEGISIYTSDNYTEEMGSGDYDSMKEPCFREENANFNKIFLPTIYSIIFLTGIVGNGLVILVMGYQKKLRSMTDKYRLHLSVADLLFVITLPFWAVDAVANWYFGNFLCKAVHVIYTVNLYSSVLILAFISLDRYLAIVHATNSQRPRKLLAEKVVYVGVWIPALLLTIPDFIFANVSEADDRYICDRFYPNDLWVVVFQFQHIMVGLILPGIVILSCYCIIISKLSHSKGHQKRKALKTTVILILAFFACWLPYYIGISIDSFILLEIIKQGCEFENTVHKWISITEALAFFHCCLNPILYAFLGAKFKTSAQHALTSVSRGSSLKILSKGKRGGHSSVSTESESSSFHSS

[2] = molecular target: T1, CXCR4 chemokine receptor (human), P61073; test: cell-based or functional assay
[3] = molecular target: T1, CXCR4 chemokine receptor (human), P61073; test: anti-CXCR4 mAb 12G5 competitive binding assay
[4] = molecular target: T1, CXCR4 chemokine receptor (human), P61073; test: ^125I-SDF-1α competitive binding assay, IC50 against SDF-1
[5] = molecular target: T1, CXCR4 chemokine receptor (human), P61073; test: anti-CXCR4 mAb 12G5 competitive binding assay, IC50 against SDF-1

For LGASWHRPDKCCLGYQKRPLP (modifications not checked) [V1 peptide (vMIP-II, 1-21)], the IC50 [1] was 190 nM, the chemotaxis assay, IC50 [2] was 1000 nM and the intracellular calcium influx in Sup T1 cells: block of the SDF-1 signal [2] was 200 µM. The IC50 [3] was 640 nM, the fold less potent than SDF-1 [4] was 70 fold and the fold less potent than SDF-1 [5] was 33 fold.

From patent US20030220482A1, “Novel peptide antagonist of CXCR4 derived from the N-terminus of the viral chemokine vMIP-II” (priority 2000, published 2003)
